Results taken from CN113583116A (YANG SHENG TANG CO LTD; UNIV XIAMEN, dated 2021).

B1: 小鼠单克隆抗体2B4 (antibody, V domains shown)
VH: QVQLQQPGAELVRPGASVKLSCKASGYTFTSYWMNWVKQRPEQGLEWIGRIDPYDSETHYNQKFKDKAILTVDKSSTTAYMQLSSLTSEDSAVYYCARWGTVEWFFDYWGQGTTLTVSQ
VL: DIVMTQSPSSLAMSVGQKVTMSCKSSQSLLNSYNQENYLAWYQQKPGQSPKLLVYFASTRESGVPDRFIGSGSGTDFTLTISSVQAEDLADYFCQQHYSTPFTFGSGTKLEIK
B2: 小鼠单克隆抗体36H6 (antibody, V domains shown)
VH: EVQLQQSGPELVNPGASVKISCKTSGYTFTEYTMHWVKQSHGKSLEWIGGINPNNGDTIYNQKFKGKATLTVDKSSSTAYMELRSLTSEDSAVFYCAREGDYYVSSYGYWGQGTTLTVSS
VL: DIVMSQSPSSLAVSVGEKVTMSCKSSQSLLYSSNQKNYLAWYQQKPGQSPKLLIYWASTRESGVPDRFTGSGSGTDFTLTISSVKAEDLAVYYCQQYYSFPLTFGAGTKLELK

Assays:
[1] = biological target: T1, SARS-CoV-1的RBD重组蛋白 SARS-CoV1-RBD (SARS-CoV-1, UniProt P59594 306-527)
[2] = biological target: T1, SARS-CoV-1的RBD重组蛋白 SARS-CoV1-RBD; assay: indirect ELISA, RBD coated at 2 μg/mL, antibody at 10, 1, 0.1 and 0.01 μg/mL

| Binder | Kd [1] | binding result [2] |
| --- | --- | --- |
| B1 | 34.1 nM | – |
| B2 | – | no binding (tested: 10μg/mL) |
